From US20240034786A1 (WUXI BIOLOGICS IRELAND, published 2024)

Columns and labels:
[1] = molecular target: T1, WBP319-hPro3.ECD.hFcHis (R&D) (human, UniProt P19022 160-724); test: capture ELISA, antigen held by anti-His antibody
T1 construct: extracellular domain; Bought protein; the text calls it ECD.His, the code says hFcHis; also called human N-Cadherin.ECD.His; Human N-Cadherin; not shown: human Fc and His tag by the code hFcHis
T1 sequence (looked up): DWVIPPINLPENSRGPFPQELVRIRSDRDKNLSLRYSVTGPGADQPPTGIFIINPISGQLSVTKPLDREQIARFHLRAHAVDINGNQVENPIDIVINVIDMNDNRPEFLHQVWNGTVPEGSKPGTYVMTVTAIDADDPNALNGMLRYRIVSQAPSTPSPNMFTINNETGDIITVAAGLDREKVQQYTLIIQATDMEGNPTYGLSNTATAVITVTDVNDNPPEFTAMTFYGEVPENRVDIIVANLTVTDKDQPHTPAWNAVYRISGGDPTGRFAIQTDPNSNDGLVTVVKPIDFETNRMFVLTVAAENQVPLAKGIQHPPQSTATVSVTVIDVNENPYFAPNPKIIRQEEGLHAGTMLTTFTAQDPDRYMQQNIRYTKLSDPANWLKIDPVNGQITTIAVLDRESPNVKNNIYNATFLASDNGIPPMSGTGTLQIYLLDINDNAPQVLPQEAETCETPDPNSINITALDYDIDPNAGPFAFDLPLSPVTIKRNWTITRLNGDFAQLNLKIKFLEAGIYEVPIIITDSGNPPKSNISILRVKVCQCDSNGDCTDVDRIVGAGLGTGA
Procedure: (§1) The binding of the antibodies to human E-Cadherin.ECD.His (R&D-8505-NC-050, WBP319-hPro2.ECD.His (R&D)) and human N-Cadherin.ECD.His (R&D-1388-NC-050, WBP319-hPro3.ECD.hFcHis (R&D)) were tested by a captured protein binding ELISA. 96-well high protein binding ELISA plates (Nunc MaxiSorp, ThermoFisher, Cat #: 442404) were coated overnight at 4° C. with 1 μg/mL capture antibody (THETM His Tag mAb, GenScript, Cat #: A00186) in Carbonate-bicarbonate buffer (20 mM Na2CO3, 180 mM NaHCO3, pH=9.2). All wells were washed three time with 300 μL per well of PBS/0.5‰ Tween-20 (v/v) and all the following wash steps in the assay were performed the same. The wells were then blocked for one hour with 3% milk (Shanghai Dingguo-DH220)/1×PBS (Ca+/Mg+) (Gibco, #14040-117) and washed three times, followed by binding of 1 μg/mL antigens in 3% milk/1×PBS (Ca+/Mg+) for 1 hour at room temperature and three washes afterwards. […]
(§2) For the binding detection, 100 μL Tetramethylbenzidine (TMB) Substrate solution (Invitrogen, Cat #: 002023) was added to all wells for 10 minutes before stopping the reaction with 100 μL 2M HCl. The extent of the testing Abs binding to WBP319-hPro2.ECD.His (R&D)) and WBP319-hPro3.ECD.hFcHis (R&D) were determined by measuring the OD450 absorbance using the SpectraMax® M5e microplate reader. […]

[2] = molecular target: T2, WBP319-hPro2.ECD.His (R&D) (human, UniProt P12830 155-709); test: capture ELISA, antigen held by anti-His antibody
T2 construct: extracellular domain; Bought protein; also called human E-Cadherin.ECD.His; Human E-Cadherin
T2 sequence (looked up): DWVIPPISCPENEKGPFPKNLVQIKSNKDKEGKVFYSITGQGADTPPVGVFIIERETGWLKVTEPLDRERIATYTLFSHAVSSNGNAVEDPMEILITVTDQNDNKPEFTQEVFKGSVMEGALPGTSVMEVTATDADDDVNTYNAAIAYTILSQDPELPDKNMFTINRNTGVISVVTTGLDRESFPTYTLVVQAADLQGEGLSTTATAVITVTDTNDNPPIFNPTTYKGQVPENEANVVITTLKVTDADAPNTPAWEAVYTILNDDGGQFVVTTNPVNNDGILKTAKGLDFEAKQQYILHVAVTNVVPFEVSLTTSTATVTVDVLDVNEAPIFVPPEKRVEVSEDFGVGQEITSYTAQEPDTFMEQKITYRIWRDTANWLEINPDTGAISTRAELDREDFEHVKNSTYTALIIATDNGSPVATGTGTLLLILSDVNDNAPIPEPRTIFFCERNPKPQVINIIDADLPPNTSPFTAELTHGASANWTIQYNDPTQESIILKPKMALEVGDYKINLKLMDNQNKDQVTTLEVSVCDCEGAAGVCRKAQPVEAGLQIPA
Procedure: as §1, §2

[3] = molecular target: T3, Human P-cadherin on cells (human, UniProt P22223 108-829); test: FACS affinity test on DU-145 cells
T3 construct: whole, on cells; Endogenous P-cadherin on tumour cell lines; also called hPro1
T3 sequence (P22223 108-829): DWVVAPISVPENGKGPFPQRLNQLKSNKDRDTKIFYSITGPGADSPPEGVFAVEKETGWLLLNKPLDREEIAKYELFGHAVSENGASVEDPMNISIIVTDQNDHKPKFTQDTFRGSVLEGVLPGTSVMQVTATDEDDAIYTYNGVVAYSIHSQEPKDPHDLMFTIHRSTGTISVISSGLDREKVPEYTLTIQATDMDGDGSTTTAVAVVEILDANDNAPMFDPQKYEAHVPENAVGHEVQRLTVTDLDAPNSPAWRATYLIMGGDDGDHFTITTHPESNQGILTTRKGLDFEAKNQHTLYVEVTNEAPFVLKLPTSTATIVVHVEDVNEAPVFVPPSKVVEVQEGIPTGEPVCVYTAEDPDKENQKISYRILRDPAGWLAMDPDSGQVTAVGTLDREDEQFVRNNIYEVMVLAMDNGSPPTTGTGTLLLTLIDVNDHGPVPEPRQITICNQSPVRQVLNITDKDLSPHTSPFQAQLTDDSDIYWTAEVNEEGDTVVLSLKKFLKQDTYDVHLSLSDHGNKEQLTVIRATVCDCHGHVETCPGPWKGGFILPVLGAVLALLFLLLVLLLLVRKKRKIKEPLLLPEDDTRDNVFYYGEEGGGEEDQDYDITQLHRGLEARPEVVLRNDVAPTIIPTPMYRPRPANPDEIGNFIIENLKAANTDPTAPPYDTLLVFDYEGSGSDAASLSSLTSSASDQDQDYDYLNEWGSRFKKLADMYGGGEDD
Procedure: Antibodies to be tested were serially diluted in 1×PBS/1% BSA and incubated with cells at 4° C. for 1 h. The plates were centrifuged and the supernatant was discarded. The cells were then incubated with Alexa647 conjugated goat anti-human IgG Fc (Jackson) at 4° C. in the dark for 30 min. After washing the cells were re-suspended in 100 μL 1×PBS/1% BSA, and fluorescence intensity was measured by flow cytometry (BD Canto II) and analyzed by FlowJo. The fluorescence intensity was converted to bound molecules/cell based on the quantitative beads standard curve (Quantum™ MESF Kits, Bangs Laboratories). KD was calculated by Graphpad Prism5.

B1: W3195-1.53.1-p1-uIgG1L (antibody)
heavy: not shown
light: SYELTQPPSVSVSPGQTAQITCSGDKLGDKFASWYQQKSGQSPVVVIYQDNKRPSGFPERFSGSNSGNTATLTISGTQAMDEADYYCQAWDSSIVVFGGGTKLTVLGQPKAAPSVTLFPPSSEELQANKATLVCLISDFYPGAVTVAWKADSSPVKAGVETTTPSKQSNNKYAASSYLSLTPEQWKSHRSYSCQVTHEGSTVEKTVAPTECS
notes: also called W3195-p1 antibody
B1 showed an EC50 [1] of over 100 nM, an EC50 [2] of over 100 nM and a Kd [3] of 0.034 nM.
